Reference: PMC4930721 (Cancer discovery, 2016)
Where no end group is shown, it is not given here. Me3 = trimethyl-lysine

Target: LEDGF PWWP (residues 1-120), 15N-labeled (UniProt O75475 1-120, uniformly 15N-labeled)
Assay: NMR titration

LEDGF PWWP (residues 1-120), 15N-labeled, sequence (O75475 1-120): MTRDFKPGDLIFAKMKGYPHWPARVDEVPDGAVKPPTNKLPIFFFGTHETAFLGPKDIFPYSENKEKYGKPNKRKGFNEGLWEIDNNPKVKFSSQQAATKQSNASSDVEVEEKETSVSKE

## ATGGVK(Me3)KPHR [histone H3K36me3 peptide]
  Kd: 4.4 mM
